The target in the data set is RHAU140-RNase HI fusion (Homo sapiens (RHAU) / Bacillus …, UniProt Q9H2U1 53-192+=SGGGSGGGSGGGSGGG+Q9KEI9:59-196, internal_change). In words: EMSA; 10 uM DNA, 50 uM protein; 100 mM K+; Native 10% PAGE in 1X TBE, 20 mM potassium phosphate, 100 mM KCl, pH 7.0; UV shadowing; temperature not stated. Conditions: protein: recombinant. Background: In EMSA bound probe runs differently from free probe, usually more slowly.
Chain of RHAU140-RNase HI fusion (Q9H2U1 other isoform, or with tags, fused parts or gaps): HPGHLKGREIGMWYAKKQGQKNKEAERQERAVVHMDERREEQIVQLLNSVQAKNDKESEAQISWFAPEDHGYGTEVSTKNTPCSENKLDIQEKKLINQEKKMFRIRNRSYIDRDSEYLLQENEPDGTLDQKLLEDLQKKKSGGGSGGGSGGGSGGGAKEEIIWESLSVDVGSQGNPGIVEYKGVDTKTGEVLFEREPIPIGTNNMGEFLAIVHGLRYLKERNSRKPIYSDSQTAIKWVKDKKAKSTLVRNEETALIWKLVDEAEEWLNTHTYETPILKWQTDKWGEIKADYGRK

B1: B1 (structured_DNA)
DNA: TTGGGTGGGTGGGTGGGTTCAACGACGACGGCATCATC
Turning to B1, the binding result (parallel G4 with 3' single-stranded tail) was “binds”.

B2: B0 (ssDNA)
DNA: TTGACTAAGTGCCTTAGTTCAACGACGACGGCATCATC
As for B2, the binding result (single strand) is reported as “no binding”.
